PMC3035117 (ChemMedChem, 2010)
Like-named read-outs stand apart in the source and are kept apart here. Square brackets hold non-standard residues; d marks the D form. Ends that are not written are not given here. Ftp = ferrocenyl-triazole-Pro (made from azidoproline); Cit = NC(=O)NCCC[C@H](N)C(=O)O

Columns and labels:
HIV-1 YU-2 gp120 [1] = biological target: T1, HIV-1 YU-2 gp120 (HIV-1 (YU-2), UniProt P35961 32-498); assay: ELISA
HIV-1 YU-2 gp120 [2] = biological target: T1, HIV-1 YU-2 gp120; assay: ITC
HIV-1 YU-2 gp120 [3] = biological target: T1, HIV-1 YU-2 gp120; assay: ELISA; remark: listed apart in the source

Row | Binder | IC50 (HIV-1 YU-2 gp120 [1]) [nM] | dH (HIV-1 YU-2 gp120 [2]) [kcal/mol] | IC50 (HIV-1 YU-2 gp120 [3]) [nM]
1 | NNI[Ftp]W-NH2 [UM17] | 600 ± 50 | -13.2 | 4000 ± 170
2 | INNI[Ftp]W-NH2 [UM15] |  | -16.6 | 
3 | NI[Ftp]WS-NH2 [UM41] |  | -6.1 | 
4 | [Cit]NNI[Ftp]WS [UM24] |  | -16.7 | 
